{"source": "paper PMC8228269", "about": "“Characterization of Feruloyl Esterase from Bacillus pumilus SK52.001 and Its Application in Ferulic Acid Production from De-Starched Wheat Bran” (Foods, 2021)", "proteins": {"B1": {"name": "BpFAE (Bacillus pumilus) (protein)", "chain": "MNLQEQIKIAASLRQPAEGSLPSQSELKPVHPPEVNKMEYDIPTSAGETKVWIFKPVNTSKQPLPVFVNLHGGGFILGSAEMDNHWCPVIADRAQCIVVNVEYQLAPEHPFPAALHECYDVLKWLYEHPDELQIDPNRVAIGGHSAGGNLATAACLLNIQKGNPVPIVYQVLDYPPLDLATDPAEKPAFEEAIPVEMARLFNAFYLQGQDPHNPLVSPIFADRSSLAQLPPALVITAERDSLAQEAEQYAEKLKEAGVDVTYRQFKGVPHAFTHAGDLEIAEEAWHLMSDQLKKAFE", "notes": "C-terminal 6xHis tag (removal not mentioned); expressed in B. subtilis WB800 from pMA5 (NdeI/BamHI); forward primer reads […]; (ATG of the NdeI site followed by a second ATG)"}}, "substrate": "COC(=O)/C=C/c1ccc(O)c(OC)c1", "assay": "HPLC-UV of released ferulic acid, nonlinear Hill fit", "type": "biochemical, Bacillus pumilus", "settings": "0.1-8 mmol/L substrate, 50 mmol/L Tris-HCl pH 9.0, 50 °C", "data": [{"protein": "B1", "values": [{"measurement": "Km", "value": 0.95, "unit": "mmol/L"}, {"measurement": "kcat", "value": 514.91, "unit": "s⁻¹"}]}]}
